Our source for the Kd values is PMC9399999 (Nature Communications, 2022).

The target in this assay is prototypic SARS-CoV-2 RBD (residues 319-541) (SARS-CoV-2, prototype (GISAID …, UniProt P0DTC2)). In words: SPR. The settings on record: both partners purified.

B1: S304 antibody (IgG1) (antibody, V domains shown)
VH: EVQLVESGGGLVQPGGSLRLSCAASGFTFSSYDMHWVRQTTGKGLEWVSTIGTAGDTYYPDSVKGRFTISREDAKNSLYLQMNSLRAGDTAVYYCARGDSSGYYYYFDYWGQGTLLTVSS
VL: DIQMTQSPSSLSAAVGDRVTITCRASQSIGSYLNWYQQKPGKAPKLLIYAASSLQSGVPSRFSGSGSGTDFTLTISSLQPEDFAIYYCQQSYVSPTYTFGPGTKVDIK
notes: IgG1
B1: the Kd (commonly the constant that tells how readily two partners part at equilibrium) was found to be 5.61 nM.
